# From US20250066745A1, “MUTANTS AND USE THEREOF” (BGI SHENZHEN, priority 2021, published 2025)
# Key:
# Type in all cases: biochemical
# Design in all cases: key to Activity of mutant relative to wild-type Gaussia luciferase without the signal peptide: ratio of mutant luminescence intensity to wild-type Gaussia luciferase
# [1] = Luminescence activity assay of purified Gaussia luciferase mutants on coelenterazine; settings: Substrate CTZ (Table 16)
# Outline: (§1)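 Readout: luminescence intensity, as ratio to signal-peptide-free wild-type enzyme. Enzyme 1 μg/mL, substrate 100 μM stock, 10 μL + 90 μL; buffer 50 mM Tris-HCl pH 8.0, 100 mM NaCl, 0.1% Tween-20.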
# [2] = Luminescence activity assay of purified Gaussia luciferase mutants on coelenterazine derivative ZS2; settings: Substrate ZS2 (Table 16)
# Outline: as §1
# [3] = Luminescence activity assay of purified Gaussia luciferase mutants on fluoro-coelenterazine; settings: Substrate f-CTZ (Table 16)
# Outline: as §1
Molecule,Activity of mutant relative to wild-type Gaussia luciferase without the signal peptide [1],Activity of mutant relative to wild-type Gaussia luciferase without the signal peptide [2],Activity of mutant relative to wild-type Gaussia luciferase without the signal peptide [3]
"Q152H Q163T T167G S170D G174N A182M G183A: Gaussia luciferase mutant (protein, SIGNAL (1)..(17), Gaussia luciferase mutant) MGVKVLFALICIAVAEAKPTENNEDFNIVAVASNFATTDLDADRGKLPGKKLPLEVLKEMEANARKAGCTRGCLICLSHIKCTPKMKKFIPGRCHTYEGDKESAQGGIGEAIVDIPEIPGFKDLEPMEQFIAQVDLCVDCTTGCLKGLANVHCSDLLKKWLPTRCAGFADKIQNQVDKIKGMAGD",0.080,0.001,0.478
"Q152R Q163S T167G S170T G174K K178S A182M G183A: Gaussia luciferase mutant (protein, SIGNAL (1)..(17), Gaussia luciferase mutant) MGVKVLFALICIAVAEAKPTENNEDFNIVAVASNFATTDLDADRGKLPGKKLPLEVLKEMEANARKAGCTRGCLICLSHIKCTPKMKKFIPGRCHTYEGDKESAQGGIGEAIVDIPEIPGFKDLEPMEQFIAQVDLCVDCTTGCLKGLANVRCSDLLKKWLPSRCAGFATKIQKQVDSIKGMAGD",1.171,2.367,1.864
"Q152R Q163S T167S S170D G174K Q175E K178N A182M: Gaussia luciferase mutant (protein, SIGNAL (1)..(17), Gaussia luciferase mutant) MGVKVLFALICIAVAEAKPTENNEDFNIVAVASNFATTDLDADRGKLPGKKLPLEVLKEMEANARKAGCTRGCLICLSHIKCTPKMKKFIPGRCHTYEGDKESAQGGIGEAIVDIPEIPGFKDLEPMEQFIAQVDLCVDCTTGCLKGLANVRCSDLLKKWLPSRCASFADKIQKEVDNIKGMGGD",4.609,3.139,1.020
"Q152K Q163T S170N G174N K178S A182Y G183A: Gaussia luciferase mutant (protein, SIGNAL (1)..(17), Gaussia luciferase mutant) MGVKVLFALICIAVAEAKPTENNEDFNIVAVASNFATTDLDADRGKLPGKKLPLEVLKEMEANARKAGCTRGCLICLSHIKCTPKMKKFIPGRCHTYEGDKESAQGGIGEAIVDIPEIPGFKDLEPMEQFIAQVDLCVDCTTGCLKGLANVKCSDLLKKWLPTRCATFANKIQNQVDSIKGYAGD",0.194,0.026,0.299
"Q152H S170D G174S K178T A182L: Gaussia luciferase mutant (protein, SIGNAL (1)..(17), Gaussia luciferase mutant) MGVKVLFALICIAVAEAKPTENNEDFNIVAVASNFATTDLDADRGKLPGKKLPLEVLKEMEANARKAGCTRGCLICLSHIKCTPKMKKFIPGRCHTYEGDKESAQGGIGEAIVDIPEIPGFKDLEPMEQFIAQVDLCVDCTTGCLKGLANVHCSDLLKKWLPQRCATFADKIQSQVDTIKGLGGD",4.938,2.672,2.069
"Q152H Q163T T167G S170N Q175E A182L G183A: Gaussia luciferase mutant (protein, SIGNAL (1)..(17), Gaussia luciferase mutant) MGVKVLFALICIAVAEAKPTENNEDFNIVAVASNFATTDLDADRGKLPGKKLPLEVLKEMEANARKAGCTRGCLICLSHIKCTPKMKKFIPGRCHTYEGDKESAQGGIGEAIVDIPEIPGFKDLEPMEQFIAQVDLCVDCTTGCLKGLANVHCSDLLKKWLPTRCAGFANKIQGEVDKIKGLAGD",0.177,0.087,0.172
"Q163T T167S S170V G174N K178N A182Y G183A: Gaussia luciferase mutant (protein, SIGNAL (1)..(17), Gaussia luciferase mutant) MGVKVLFALICIAVAEAKPTENNEDFNIVAVASNFATTDLDADRGKLPGKKLPLEVLKEMEANARKAGCTRGCLICLSHIKCTPKMKKFIPGRCHTYEGDKESAQGGIGEAIVDIPEIPGFKDLEPMEQFIAQVDLCVDCTTGCLKGLANVQCSDLLKKWLPTRCASFAVKIQNQVDNIKGYAGD",0.170,0.138,0.135
Q152K Q163S T167G S170V G174K Q175E K180: Gaussia luciferase mutant (protein) MGVKVLFALICIAVAEAKPTENNEDFNIVAVASNFATTDLDADRGKLPGKKLPLEVLKEMEANARKAGCTRGCLICLSHIKCTPKMKKFIPGRCHTYEGDKESAQGGIGEAIVDIPEIPGFKDLEPMEQFIAQVDLCVDCTTGCLKGLANVKCSDLLKKWLPSRCAGFAVKIQKEVDKIKGAGGD,0.011,0.136,0.512
"Q152R T167G G174S Q175E K178N A182Y G183A: Gaussia luciferase mutant (protein, SIGNAL (1)..(17), Gaussia luciferase mutant) MGVKVLFALICIAVAEAKPTENNEDFNIVAVASNFATTDLDADRGKLPGKKLPLEVLKEMEANARKAGCTRGCLICLSHIKCTPKMKKFIPGRCHTYEGDKESAQGGIGEAIVDIPEIPGFKDLEPMEQFIAQVDLCVDCTTGCLKGLANVRCSDLLKKWLPQRCAGFASKIQSEVDNIKGYAGD",0.703,0.481,0.404
"Q152H S170D Q175E A182Y: Gaussia luciferase mutant (protein, SIGNAL (1)..(17), Gaussia luciferase mutant) MGVKVLFALICIAVAEAKPTENNEDFNIVAVASNFATTDLDADRGKLPGKKLPLEVLKEMEANARKAGCTRGCLICLSHIKCTPKMKKFIPGRCHTYEGDKESAQGGIGEAIVDIPEIPGFKDLEPMEQFIAQVDLCVDCTTGCLKGLANVHCSDLLKKWLPQRCATFADKIQGEVDKIKGYGGD",0.615,0.723,0.583
"Q152K Q163S T167S S170N G174N K178S A182Y G183A: Gaussia luciferase mutant (protein, SIGNAL (1)..(17), Gaussia luciferase mutant) MGVKVLFALICIAVAEAKPTENNEDFNIVAVASNFATTDLDADRGKLPGKKLPLEVLKEMEANARKAGCTRGCLICLSHIKCTPKMKKFIPGRCHTYEGDKESAQGGIGEAIVDIPEIPGFKDLEPMEQFIAQVDLCVDCTTGCLKGLANVKCSDLLKKWLPSRCASFANKIQNQVDSIKGYAGD",0.906,0.819,1.175
"E102K S103T A104G E110G V138D: Gaussia luciferase mutant (protein, SIGNAL (1)..(17), Gaussia luciferase mutant) MGVKVLFALICIAVAEAKPTENNEDFNIVAVASNFATTDLDADRGKLPGKKLPLEVLKEMEANARKAGCTRGCLICLSHIKCTPKMKKFIPGRCHTYEGDKKTGQGGIGGAIVDIPEIPGFKDLEPMEQFIAQVDLCDDCTTGCLKGLANVQCSDLLKKWLPQRCATFASKIQGQVDKIKGAGGD",0.106,0.065,4.919
"S103I A104G E110G L124M V138D: Gaussia luciferase mutant (protein, SIGNAL (1)..(17), Gaussia luciferase mutant) MGVKVLFALICIAVAEAKPTENNEDFNIVAVASNFATTDLDADRGKLPGKKLPLEVLKEMEANARKAGCTRGCLICLSHIKCTPKMKKFIPGRCHTYEGDKEIGQGGIGGAIVDIPEIPGFKDMEPMEQFIAQVDLCDDCTTGCLKGLANVQCSDLLKKWLPQRCATFASKIQGQVDKIKGAGGD",1.165,1.337,1.701
E102K S103T A104G E110G V138D I172: Gaussia luciferase mutant (protein) MGVKVLFALICIAVAEAKPTENNEDFNIVAVASNFATTDLDADRGKLPGKKLPLEVLKEMEANARKAGCTRGCLICLSHIKCTPKMKKFIPGRCHTYEGDKKTGQGGIGGAIVDIPEIPGFKDLEPMEQFIAQVDLCDDCTTGCLKGLANVQCSDLLKKWLPQRCATFASKIQGQVDKIKGAGGD,0.622,0.550,2.719
